Measured values from US20190367607A1 (DUKE UNIVERSITY, published 2019).
Substitutions are numbered along the chain they refer to. Values belong to the binder of their own block, whether it stands above or below them.

Molecular target: T1, human CD22 on B cells of hCD22-Tg+/+ mCD22-/- transgenic mice (human, UniProt P20273 20-847)
T1 construct: whole, on cells; Expressed from the human CD22 gene with its endogenous regulatory elements
Test: flow cytometry of blood B220+ B cells from hCD22-Tg mice 7 days after mAb injection, stained with anti-mouse IgG1
Procedure: FIGS. 20A-20B are a set of histograms and scatter plots showing B10 cell-depleting mAbs in hCD22-Tg mice bind B220⁺B cells. Blood lymphocytes isolated from hCD22-Tg mice given either HB22-103, HB22-107, HB22-115 or an isotype-matched (IgG1) mAb (250 μg/mouse) 7 days earlier in FIG. 16 were assessed for relative HB22 mAb binding by immunofluorescence staining with fluorochrome-conjugated anti-mouse IgG1 isotype-specific antibody. […] Bars indicate means, with significant differences between group means indicated: **, p<0.01; ***, p<0.001.

binding result: binds
B1: HB22-103 (antibody, V domains shown)
VH: QVQLQQPGTELVKPGASVKLSCKASGYTFTSYWMHWVKQRPGQGLEWIGMIHPNRGTTNYNEKFKSKATLTVDKSSSTAYMQLSSLTSEDSAVYYCARYYDYDPDYWGQGTTLTVSS
VL: DIVLTQSPATLSVTPGDSVSLSCRASQSISNNLHWFQQKSHESPRLLIKYGYQSISGIPSRFSGSGSGTDFTLSINSVETEDFGMYFCQQSYRWPYTFGGGTKLEIK
notes: also called HB22-103 mAb; HB22 mAb

binding result: binds
B2: HB22-115 (antibody, V domains shown)
VH: B1 VH with T9A, R55S, T57S, N61S
VL: B1 VL with S20T, S28G, F36Y, K39Q, Y50F, G51T, Y52S, I55V, I75V, Y92N
notes: Mouse IgG1 monoclonal antibody to human CD22; also called HB22-115 mAb; HB22 mAb

binding result: binds
B3: HB22-107 (antibody, V domains shown)
VH: DVKLVESGEGLVKPGGSLKLSCAASGFTFSSYAMSWVRQTPEKRLEWVAYITSGGDYIYYADTVKGRFTISRDDARNTLYLQMSSLKSEDTAMYYCTRDQGYYYDGRPTWFAYWGQGTLVTVSA
VL: DIVMIQSPSSLAMSVGQKVTMRCKSSQSLLSSSNQKNYLAWYQQKPGQSPKLLVYFASTRESGVPDRFIGSGSGTDFTLTINSVQAEDLADYFCQQHYSTPLTFGAGTKLELK
notes: Mouse IgG1 monoclonal antibody to human CD22; also called HB22-107 mAb; HB22 mAb
